The results in this text go back to patent publication US20230183336A1 (MODMAB THERAPEUTICS, published 2023).

The target of assay [1] is T1, recombinant mouse LRP5-His chimera (mouse, UniProt Q91VN0 31-1383).
T1 construct: extracellular domain; also called ECD of mouse LRP5; not shown: His tag
T1 sequence (looked up): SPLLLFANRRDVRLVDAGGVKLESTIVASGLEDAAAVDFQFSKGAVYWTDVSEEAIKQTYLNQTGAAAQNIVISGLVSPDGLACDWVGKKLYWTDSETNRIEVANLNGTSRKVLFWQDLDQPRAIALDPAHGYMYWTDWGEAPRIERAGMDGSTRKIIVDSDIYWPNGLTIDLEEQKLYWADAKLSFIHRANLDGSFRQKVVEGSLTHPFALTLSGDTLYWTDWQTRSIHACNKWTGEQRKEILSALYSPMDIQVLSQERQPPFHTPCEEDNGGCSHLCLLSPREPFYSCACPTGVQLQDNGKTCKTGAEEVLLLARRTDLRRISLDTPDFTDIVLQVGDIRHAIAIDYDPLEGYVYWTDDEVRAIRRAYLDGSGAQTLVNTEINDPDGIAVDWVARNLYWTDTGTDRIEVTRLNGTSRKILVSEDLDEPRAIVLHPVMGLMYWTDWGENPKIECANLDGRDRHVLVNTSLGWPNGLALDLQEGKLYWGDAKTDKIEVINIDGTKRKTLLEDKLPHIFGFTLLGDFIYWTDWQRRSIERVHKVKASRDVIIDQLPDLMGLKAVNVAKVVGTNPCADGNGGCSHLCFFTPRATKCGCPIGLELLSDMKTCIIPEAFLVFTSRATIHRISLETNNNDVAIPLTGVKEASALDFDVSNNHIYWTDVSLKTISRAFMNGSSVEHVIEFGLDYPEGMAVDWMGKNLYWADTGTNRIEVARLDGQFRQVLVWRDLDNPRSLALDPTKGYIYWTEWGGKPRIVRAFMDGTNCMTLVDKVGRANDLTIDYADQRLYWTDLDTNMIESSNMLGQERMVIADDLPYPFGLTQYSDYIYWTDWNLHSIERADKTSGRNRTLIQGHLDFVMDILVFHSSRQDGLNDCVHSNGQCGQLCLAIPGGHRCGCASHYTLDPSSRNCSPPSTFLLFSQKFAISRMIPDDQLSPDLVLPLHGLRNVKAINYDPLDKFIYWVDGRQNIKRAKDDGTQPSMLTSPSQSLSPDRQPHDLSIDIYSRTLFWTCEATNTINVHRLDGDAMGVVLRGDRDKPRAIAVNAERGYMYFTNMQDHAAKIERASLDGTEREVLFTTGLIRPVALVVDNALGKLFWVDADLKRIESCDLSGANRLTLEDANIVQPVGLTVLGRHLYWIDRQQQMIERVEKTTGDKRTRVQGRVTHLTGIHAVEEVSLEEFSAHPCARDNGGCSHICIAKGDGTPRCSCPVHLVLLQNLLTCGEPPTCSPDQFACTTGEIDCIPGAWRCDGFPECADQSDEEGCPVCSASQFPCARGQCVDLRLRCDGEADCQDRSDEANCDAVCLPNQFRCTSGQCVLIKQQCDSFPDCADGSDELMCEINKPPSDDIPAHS
Briefly: single-point ELISA, coated antigen, purified Fab or IgG1, anti-kappa-HRP. As to the method: (§1) FIGS. 1A and 1B show sixteen (16) anti-LRP antibodies. (A) The amino acid sequences of the complementarity determining regions (CDR) of the heavy (H) and the light (L) chains are presented. The antibodies were grouped into unique epitopes as determined by competitive ELISAs. (B) Single-point ELISAs were performed on 96-well Maxisorb immune plates coated with ECD's of mouse LRP5, mouse LRP6 and human LRP6 chimeras. The plates were incubated with the purified Fab or IgG1 at the concentrations indicated followed by incubation with horseradish peroxidase (HRP)-conjugated anti-kappa antibody. The wells were washed eight times followed by incubation with 3,3′,5,5′-tetramethylbenzidine/H₂O₂ peroxidase (TMB) substrate for 5-10 min. The reaction was stopped by adding 1M H₃PO₄ and the absorbance was measured spectrometrically at 450 nm in a microtiter plate reader. FIG. 1A discloses “SSVA” as SEQ ID NO: 34, and “SASSLYS” as SEQ ID NO: 35, as well as SEQ ID NOS 36-49, 51, 44, 2-4, 4, 5-7, 5, 4, 5, 8-10, 4, 52, 55, 11-16, 15, 15, 13, 17-20, 13, 53, 56, 21-23, 22, 24-33, 54, 57, respectively, in order of columns.
(§2) The full length IgG1s and the antibody fragments (Fabs) were purified and a single-point ELISA was done to determine the specificity of the antibodies. […] A multipoint competitive ELISA was used to determine the relative affinities of the antibodies to the recombinant antigen.
Background: In an ELISA, binding on a coated surface is turned into a signal by an enzyme label.

Assay [2] addresses T2, recombinant mouse LRP6-His chimera (mouse, UniProt O88572 20-1370).
T2 construct: extracellular domain; also called ECD of mouse LRP6; not shown: His tag
T2 sequence (looked up): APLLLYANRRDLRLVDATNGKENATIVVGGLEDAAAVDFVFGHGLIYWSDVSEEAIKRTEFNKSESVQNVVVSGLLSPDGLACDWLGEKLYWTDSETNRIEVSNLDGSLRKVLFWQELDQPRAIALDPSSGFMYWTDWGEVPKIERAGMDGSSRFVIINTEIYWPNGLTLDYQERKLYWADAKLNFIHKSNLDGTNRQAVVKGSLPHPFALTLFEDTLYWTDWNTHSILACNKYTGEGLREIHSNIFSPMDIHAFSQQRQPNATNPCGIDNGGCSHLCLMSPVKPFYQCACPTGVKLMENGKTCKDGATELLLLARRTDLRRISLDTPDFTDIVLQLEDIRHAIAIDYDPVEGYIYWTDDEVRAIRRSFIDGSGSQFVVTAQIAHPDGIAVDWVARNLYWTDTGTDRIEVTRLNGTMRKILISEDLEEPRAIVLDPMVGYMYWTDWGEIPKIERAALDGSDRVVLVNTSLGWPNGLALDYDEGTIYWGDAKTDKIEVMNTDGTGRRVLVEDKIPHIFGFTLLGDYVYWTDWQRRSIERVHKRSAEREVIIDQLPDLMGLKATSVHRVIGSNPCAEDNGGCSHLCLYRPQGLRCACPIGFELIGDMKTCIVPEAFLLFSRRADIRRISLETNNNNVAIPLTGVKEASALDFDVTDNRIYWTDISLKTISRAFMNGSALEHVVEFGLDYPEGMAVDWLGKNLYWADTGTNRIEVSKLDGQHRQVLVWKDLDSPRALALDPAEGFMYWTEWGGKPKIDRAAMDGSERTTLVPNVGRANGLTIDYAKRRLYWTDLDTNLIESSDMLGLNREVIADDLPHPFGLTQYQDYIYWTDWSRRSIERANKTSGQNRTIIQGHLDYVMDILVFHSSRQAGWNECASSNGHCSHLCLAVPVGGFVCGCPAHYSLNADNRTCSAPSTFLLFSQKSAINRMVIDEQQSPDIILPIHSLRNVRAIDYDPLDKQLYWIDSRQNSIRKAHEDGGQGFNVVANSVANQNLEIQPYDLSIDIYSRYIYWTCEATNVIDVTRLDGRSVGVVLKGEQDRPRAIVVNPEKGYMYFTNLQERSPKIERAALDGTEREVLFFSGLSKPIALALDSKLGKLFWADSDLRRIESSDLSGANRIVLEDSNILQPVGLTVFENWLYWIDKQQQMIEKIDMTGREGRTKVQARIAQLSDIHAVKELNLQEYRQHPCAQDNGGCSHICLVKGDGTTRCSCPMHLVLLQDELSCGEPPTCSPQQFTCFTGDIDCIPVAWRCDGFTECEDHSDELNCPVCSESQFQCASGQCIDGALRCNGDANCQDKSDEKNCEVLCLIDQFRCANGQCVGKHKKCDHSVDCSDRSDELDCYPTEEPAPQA
The assay is described as above. As to the method:
as §1, §2

B1: LRP5-R3O_D3 (antibody, V domains shown)
VH: EVQLVESGGGLVQPGGSLRLSCAASGFNFSSSSIHWVRQAPGKGLEWVASISSSYGYTYYADSVKGRFTISADTSKNTAYLQMNSLRAEDTAVYYCARSWAMDYWGQGTLVTVSS
VL: DIQMTQSPSSLSASVGDRVTITCRASQSVSSAVAWYQQKPGKAPKLLIYSASSLYSGVPSRFSGSRSGTDFTLTISSLQPEDFATYYCQQYWAYYSPITFGQGTKVEIKR
notes: Fab-phage in the screen; also called LRP5-R30_D3; LRP5-R30D3
Consider B1, for which the binding result in assay [1] and in assay [2] was “binds” each time.
